Experimental data: PMC8940892

Biological target: small capsid protein (SCP, VP26) of pseudorabies virus (pseudorabies virus (PRV), Bartha strain)
Assay: cryo-EM structure

## small capsid protein (SCP, VP26) of pseudorabies virus (natural protein)
  stoichiometry N: 6
